{"source": "patent US20230357348A1", "about": "(AstraZeneca / MedImmune, published 2023)", "binders": {"B1": {"name": "Peptide 361 (peptide)", "peptide": "H[Aib]IGS[αMeF]TSDVSK[αMeF]LDSRAAQDFVK([AEEA-AEEA-γGlu-C18 diacid])WIANT-NH2", "modifications": "N-terminus assumed", "SMILES": "CC[C@H](C)[C@H](NC(=O)[C@H](Cc1c[nH]c2ccccc12)NC(=O)[C@H](CCCCNC(=O)COCCOCCNC(=O)COCCOCCNC(=O)CC[C@H](NC(=O)CCCCCCCCCCCCCCCCC(=O)O)C(=O)O)NC(=O)[C@@H](NC(=O)[C@H](Cc1ccccc1)NC(=O)[C@H](CC(=O)O)NC(=O)[C@H](CCC(N)=O)NC(=O)[C@H](C)NC(=O)[C@H](C)NC(=O)[C@H](CCCNC(=N)N)NC(=O)[C@H](CO)NC(=O)[C@H](CC(=O)O)NC(=O)[C@H](CC(C)C)NC(=O)[C@](C)(Cc1ccccc1)NC(=O)[C@H](CCCCN)NC(=O)[C@H](CO)NC(=O)[C@@H](NC(=O)[C@H](CC(=O)O)NC(=O)[C@H](CO)NC(=O)[C@@H](NC(=O)[C@](C)(Cc1ccccc1)NC(=O)[C@H](CO)NC(=O)CNC(=O)[C@@H](NC(=O)C(C)(C)NC(=O)[C@@H](N)Cc1c[nH]cn1)[C@@H](C)CC)[C@@H](C)O)C(C)C)C(C)C)C(=O)N[C@@H](C)C(=O)N[C@@H](CC(N)=O)C(=O)N[C@H](C(N)=O)[C@@H](C)O"}, "B2": {"name": "Peptide 392 (of Table 9, position 10) (peptide)", "peptide": "H[Aib]HGS[αMeF]TSDK([AEEA-AEEA-γGlu-C18 diacid])SK[αMeF]LDSRAAQD[αMeF]VQ[Aib]IANT-NH2", "modifications": "N-terminus assumed", "SMILES": "CC[C@H](C)[C@H](NC(=O)C(C)(C)NC(=O)[C@H](CCC(N)=O)NC(=O)[C@@H](NC(=O)[C@](C)(Cc1ccccc1)NC(=O)[C@H](CC(=O)O)NC(=O)[C@H](CCC(N)=O)NC(=O)[C@H](C)NC(=O)[C@H](C)NC(=O)[C@H](CCCNC(=N)N)NC(=O)[C@H](CO)NC(=O)[C@H](CC(=O)O)NC(=O)[C@H](CC(C)C)NC(=O)[C@](C)(Cc1ccccc1)NC(=O)[C@H](CCCCN)NC(=O)[C@H](CO)NC(=O)[C@H](CCCCNC(=O)COCCOCCNC(=O)COCCOCCNC(=O)CC[C@H](NC(=O)CCCCCCCCCCCCCCCCC(=O)O)C(=O)O)NC(=O)[C@H](CC(=O)O)NC(=O)[C@H](CO)NC(=O)[C@@H](NC(=O)[C@](C)(Cc1ccccc1)NC(=O)[C@H](CO)NC(=O)CNC(=O)[C@H](Cc1c[nH]cn1)NC(=O)C(C)(C)NC(=O)[C@@H](N)Cc1c[nH]cn1)[C@@H](C)O)C(C)C)C(=O)N[C@@H](C)C(=O)N[C@@H](CC(N)=O)C(=O)N[C@H](C(N)=O)[C@@H](C)O"}, "B3": {"name": "Peptide 368 (peptide)", "peptide": "H[Aib]HGS[αMeF]TSDVSK[αMeF]LDSR[Aib]AQDFVK([AEEA-AEEA-γGlu-C20 diacid])WIANT-NH2", "modifications": "N-terminus assumed", "SMILES": "CC[C@H](C)[C@H](NC(=O)[C@H](Cc1c[nH]c2ccccc12)NC(=O)[C@H](CCCCNC(=O)COCCOCCNC(=O)COCCOCCNC(=O)CC[C@H](NC(=O)CCCCCCCCCCCCCCCCCCC(=O)O)C(=O)O)NC(=O)[C@@H](NC(=O)[C@H](Cc1ccccc1)NC(=O)[C@H](CC(=O)O)NC(=O)[C@H](CCC(N)=O)NC(=O)[C@H](C)NC(=O)C(C)(C)NC(=O)[C@H](CCCNC(=N)N)NC(=O)[C@H](CO)NC(=O)[C@H](CC(=O)O)NC(=O)[C@H](CC(C)C)NC(=O)[C@](C)(Cc1ccccc1)NC(=O)[C@H](CCCCN)NC(=O)[C@H](CO)NC(=O)[C@@H](NC(=O)[C@H](CC(=O)O)NC(=O)[C@H](CO)NC(=O)[C@@H](NC(=O)[C@](C)(Cc1ccccc1)NC(=O)[C@H](CO)NC(=O)CNC(=O)[C@H](Cc1c[nH]cn1)NC(=O)C(C)(C)NC(=O)[C@@H](N)Cc1c[nH]cn1)[C@@H](C)O)C(C)C)C(C)C)C(=O)N[C@@H](C)C(=O)N[C@@H](CC(N)=O)C(=O)N[C@H](C(N)=O)[C@@H](C)O"}}, "experiment_in_all_cases": "cell-based or functional assay", "key": {"[1]": {"target": "T1, human GLP-1 receptor (hGLP-1R) (human, UniProt P43220 24-463)"}, "[2]": {"target": "T2, human glucagon receptor (hGCGR) (human, UniProt P47871 26-477)", "T2 sequence (P47871 26-477)": "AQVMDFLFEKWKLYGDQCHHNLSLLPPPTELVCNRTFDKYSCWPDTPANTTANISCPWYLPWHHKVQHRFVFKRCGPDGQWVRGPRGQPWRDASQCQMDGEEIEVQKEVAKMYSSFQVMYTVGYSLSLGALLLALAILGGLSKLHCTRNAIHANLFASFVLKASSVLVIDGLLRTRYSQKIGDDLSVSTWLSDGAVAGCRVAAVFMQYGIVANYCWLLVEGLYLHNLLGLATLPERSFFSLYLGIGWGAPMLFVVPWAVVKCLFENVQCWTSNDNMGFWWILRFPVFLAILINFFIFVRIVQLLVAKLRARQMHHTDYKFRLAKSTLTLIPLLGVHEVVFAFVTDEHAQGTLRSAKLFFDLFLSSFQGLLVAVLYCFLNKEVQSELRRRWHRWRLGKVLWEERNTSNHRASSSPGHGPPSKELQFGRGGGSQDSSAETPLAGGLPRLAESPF"}, "[3]": {"target": "T1, human GLP-1 receptor (hGLP-1R)", "remark": "listed apart in the source"}, "[4]": {"target": "T2, human glucagon receptor (hGCGR)", "remark": "listed apart in the source"}, "[5]": {"target": "T1, human GLP-1 receptor (hGLP-1R)", "remark": "listed apart in the source"}, "[6]": {"target": "T2, human glucagon receptor (hGCGR)", "remark": "listed apart in the source"}}, "note": "Like-named read-outs stand apart in the source and are kept apart here. Starred links: 1 amine or outer side, 2 acyl side, 3 side chain; linkers in the order of their positions; H or OH if unused. Non-standard residues stand in square brackets, D forms with d. Groups on a side chain read outwards from the residue. Primed or numbered codes have the meaning given here. No end group written: not given here. *: point of attachment. C20 diacid = O=C(O)CCCCCCCCCCCCCCCCCCC(=O)*; C18 diacid = O=C(O)CCCCCCCCCCCCCCCCC(=O)*; γGlu = O=C(O)[C@H](CCC(=O)[*:2])N[*:1]; Stearoyl = CCCCCCCCCCCCCCCCCC(=O)*; Palmitoyl = CCCCCCCCCCCCCCCC(=O)*; αMeF = C[C@](N)(Cc1ccccc1)C(=O)O; (PEG)2 = polyethylene glycol 2; PEG2′ = polyethylene glycol 2; AEEA = NCCOCCOCC(=O)O; Aib = CC(C)(N)C(=O)O", "data": [{"binder": "H[Aib]HGS[αMeF]TSDVSK[αMeF]LDSRAAQDFVK([AEEA-AEEA-γGlu-C20 diacid])WIANT-NH2 (not fully specified)", "note": "[Peptide 367]", "values": [{"measurement": "hGLP-1R EC50 (pM); cAMP production", "setting": "[1]", "value": 139, "unit": "pM"}, {"measurement": "hGluc-R EC50 (pM); cAMP production", "setting": "[2]", "value": 72.4, "unit": "pM"}]}, {"binder": "H[Aib]QGS[αMeF]TSDK([PEG2′-PEG2′-γGlu-Palmitoyl])SKILDSRAAQD[αMeF]VEWIANT-NH2", "note": "[Peptide 396 (of Table 9, position 10)]", "values": [{"measurement": "hGLP-1R EC50 (pM); cAMP production", "setting": "[3]", "value": 0.583, "unit": "pM"}, {"measurement": "hGluc-R EC50 (pM); cAMP production", "setting": "[4]", "value": 11.8, "unit": "pM"}]}, {"binder": "HSQGS[αMeF]TSDVSKK([AEEA-AEEA-γGlu-γGlu-Stearoyl])LDSQAAQD[αMeF]VE[Aib]LANT-NH2", "note": "[Peptide 404 (of Table 10, position 13)]", "values": [{"measurement": "hGLP-1R EC50 (pM); cAMP production", "setting": "[5]", "value": 5.65, "unit": "pM"}, {"measurement": "hGluc-R EC50 (pM); cAMP production", "setting": "[6]", "value": 21.8, "unit": "pM"}]}, {"binder": "H[Aib]QGS[αMeF]TSDVSKK([(PEG)2-(PEG)2-γGlu-Palmitoyl])LDSRAAQD[αMeF]VEWIANT-NH2", "note": "[Peptide 402 (of Table 10, position 13)]", "values": [{"measurement": "hGLP-1R EC50 (pM); cAMP production", "setting": "[5]", "value": 1.04, "unit": "pM"}, {"measurement": "hGluc-R EC50 (pM); cAMP production", "setting": "[6]", "value": 18.1, "unit": "pM"}]}, {"binder": "B1", "values": [{"measurement": "hGLP-1R EC50 (pM); cAMP production", "setting": "[1]", "value": 35.7, "unit": "pM"}, {"measurement": "hGluc-R EC50 (pM); cAMP production", "setting": "[2]", "value": 23.6, "unit": "pM"}]}, {"binder": "B2", "values": [{"measurement": "hGLP-1R EC50 (pM); cAMP production", "setting": "[3]", "value": 312, "unit": "pM"}, {"measurement": "hGluc-R EC50 (pM); cAMP production", "setting": "[4]", "value": 6920, "unit": "pM"}]}, {"binder": "B3", "values": [{"measurement": "hGLP-1R EC50 (pM); cAMP production", "setting": "[1]", "value": 186, "unit": "pM"}, {"measurement": "hGluc-R EC50 (pM); cAMP production", "setting": "[2]", "value": 290, "unit": "pM"}]}]}
